system: MS2 coat protein; assay: apparent KD of MS2 coat protein; higher = weaker reporter binding; settings: Eterna round: R107; input ligand: none
Summary of the method: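 Binding of SNAP-549-labelled MS2 coat protein was measured on designed RNA switches transcribed on-chip from Illumina sequencing clusters. The protein rose in twofold steps from 0.7 or 1.5 nM to 3 µM, with 0.8–1.5 h per step early on and 10–20 min per step later, in 100 mM Tris-HCl pH 7.5, 80 mM KCl, 4 mM MgCl2, without or with constant ligand. Each design's apparent KD is the median of fits to its normalised cluster binding curves.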

Row | Sequence | apparent KD of MS2 coat protein [nM]
1 | UCGCUCUGGGUGAAUCCCAGAGAUAUGGAAGGAGCGGACGAAAGUCCAGGUAGGUCGCCAUCGAACAUGAGGAUCACCCAUGUAC [Same State - Arginine A (Freestyle 27)] | 47.6
2 | AAUGUGAUAGUCGUACUCUCACACUGAGAAGGAGCGCGAAAGUUCGCAGGUAGGUCGCUCAGUUAUACAUGAGGAUCACCCAUGU [Edgeised] | 21
3 | GGGCGCUAUCCCGCGAGGGAUAGCGUUCGACGAGGACCGGUACGGCCGCCACUCGAACGAGUGGGUACAUGAGGAUCACCCAUGU [Gaa] | 33.5
4 | GUAAUUUUAAGAAGGAGCGUCGAAAAUGGGUAAACAUGAGGAUCACCCAUGUAAAGGGAACGACAGGUAGGUCGCUUAGGAUUAC [AstromonsSSArgB#23] | 191
5 | CUAAGAGUAGGAAGGAGCGACAUGAGGAUCACCCAUGUGGCUCUCAUGGCCCGGGUCUUAUGUCAGGUAGGUCGCCUACUGUUUA [Solave] | 14.4
6 | UAUACAUGAGGAUCACCCAUGUGCCAUGAUACCAGACAUGAAAAUGUCCCUUGGCAGCAUGGGAGAUGUAUAGCGGGAAACCCGA [Turany] | 38.9
7 | GAUUUAACAAAAGUUGGAUCAGUGGGUGAACGAGGACCGGUACGGCCGCCACUCGGACAUGAGGAUCACCCAUGUCCAUGUGAAA [AstrosExyTryA#19] | 129
8 | UGAUAUGUGGGAAGGAGCGCAUACUUCACAUGAGGAUCACCCAUGUCAAGACGUGAGUCAGUGCAGGUAGGUCGCCUAGUUAUGA [Same State - Arginine B (Freestyle 19)] | 124
9 | ACAUGAGGAUCACCCAUGUAGCCUAGGGAAGGAGCGGCAUAAAAGCCAGGUAGGUCGCCCGCAUGAGGAUCACCCAUGUCAAGGA [Same State Arginine A GF7] | 70
10 | ACGAUAGGACACGAGGAUCACCCGUGUGAUACCAGCCUGGAAACAGGCCCUUGGCAGCACAAAUACUCCAAUAACCUAUCGAAUA [TheoAX 10 #MicroSwitchBubble #AlternativeMS2] | 96.3
11 | AAUAUUAACUGAAGGAGCGUGUUAUGUACAUGAGGAUCACCCAUGUAUAGGGUAAUACUAACACAGGUAGGUCGCAGAAUAAUUA [JR_SSArginiB_Sub010] | 20.6
12 | UGUAUGGACUGAAGGAGCGGAAGAUACCAUGAGGAUCACCCAUGGAAUAAGGCGAAAGCCUUCCAGGUAGGUCGCAGUCCAUACU | 18.3
13 | AUACAUGAGGAUCACCCAUGUCAUUCAGAAGGAGCGUCAUUUUAGACAGGUAGGUCGCUGAUAGUAUUUUUAUACUUUAUGUUUA [JR_SSArginiA_Sub015] | 20.3
14 | AAAUGAAGGCGAAGGAGCGGGAACAUGAGGAUCACCCAUGUGUAUGUAUGUAGUCAUGUAUCUCAGGUAGGUCGCGCUGUUACAU [Exclusion Arginine B 2] | 185
15 | UAUCCACAUGAGGAUCACCCAUGUUAGGAAGGAGCGGUGAAUGAACCAGGUAGGUCGCCUAGCUGAGGACCAUCAAUGGAUUCGU [Exclusion - Arginine A (Freestyle 14)] | 31.8
16 | UGAUGGUGCGGAAGGAGCGUGUAAGAACAAGAACAUGAGGAUCACCCAUGUAUUAAUUUAACACAGGUAGGUCGCCGUGUUAUUG [11.K] | 35.5
17 | UAUCGUCAGACGGCCGCCACUAGAACAUGAGGAUCACCCAUGUAGGCGGCCGAUUCCUCAUGAACUAGGACCGGGUCUGACGAAU [(Trp1)-(Ms2)-(T)'-(M)'-(Trp2)_Design12] | 6.6
18 | UCGACAAGAACAAUAAACAGCACUUGAGAAGGAGCGCGGAAAUCCGCAGGUAGGUCGCUCAUGUGUACAUGAGGAUCACCCAUGU [Inveonxeed] | 39.7
19 | AUUACAUGGAUUACAACUAAAUCAACUGAAGGAGCGUGAAGGAUCACAGGUAGGUCGCAGUACAUGAGGAUCACCCAUGUUAUAA [JR_Nu_SSArginiA_Sub021] | 34
20 | AUGCCUAGUGGAAGGAGCGAGGGUCUUCUCAACAUGAGGAUCACCCAUGUUCUUUUAUACCCUCAGGUAGGUCGCCAUUGGGACA [Anenre] | 28.8
21 | ACCUGUACGAAAAGUGCAGGACACGGAUAACGAGGACCGGUACGGCCGCCACUCGGAAUAACCUGAGGAUCACCCUGGUACCGUG [TrypAS 8 #AlternativeMS2 #Zipper #StaticStem] | 18.7
22 | GUUGGAUGCUCGGCCGCCACUGAGAGAGUCAUGUGAACAUGAGGAUCACCCAUGUAAUAUAUAUACAGGACCGGGAGUGUUGUAA [4.J] | 19.5

same assay, conditions: Eterna round: R107; input ligand: theophylline 20 uM

Row | Sequence | apparent KD of MS2 coat protein [nM]
23 | AAUCAUGGAAACAUGACAUGAGGGUUACUCCGAGGACCGGUACGGCCGCCACUCGCGAGGAGGCGGACAUGAGGAUCACCCAUGU [#04 Tryptophan A Same State] | 240
24 | ACAUGAGGAUCACCCAUGUUUGAUGUUCCUCGAGGACCGGUACGGCCGCCACUCGAACGAGUGGCGCGCGCGCGCGCGCGCGCGC [aQa] | 22.9
25 | AGCGACAUGCGUGAUACCAGCUACAUGAGGAUCACCCAUGUACGUCAGAAAUGACUGUGUAGCCCUUGGCAGCAUAGUGCAUGUC [Exclusion - Theophylline B (Freestyle 20)] | 54.2
26 | CACUACAUGAGGAUCACCCAUGUCUUCCGACGAGGACCGGUACGGCCGCCACUCGAACCUCCAACUAAUACCUCAACCGUCUGAU [theeternabot_sameState_MS2_Trp_A_25] | 110
27 | GCACCAGGUACGGAUACCAGACGUUGCCAAACAGGGUGACAUGAGGAUCACCCAUGUACUGUCCCUUGGCAGCCGUACCUGGUGC [EThB NP+V+V2 #4 +-Same Structure] | 53
28 | GCGGAAUAAUCGGCCGCCACUAUGAUAUAGGAAACUAUAACAUGAGGAUCACCCAUGUAUCCUCAUAGGACCGGGAUUAAAACGC [TrypB - CS] | 121
29 | CGAAAGCAGUGAUCCAGCUUUCGCCUGGAAGGAGCGAGCGAAAGCUCAGGUAGGUCGCCAGAAACAUGAGGAUCACCCAUGUAAU [(A)''-(M)'-(A)'-(Arg1)-(Arg2)-(M1)-(M2)_Design8] | 82
30 | UCGCUCUGGGUGAAUCCCAGAGAUAUGGAAGGAGCGGACGAAAGUCCAGGUAGGUCGCCAUCGAACAUGAGGAUCACCCAUGUAC [Same State - Arginine A (Freestyle 27)] | 57.8
31 | AGGAAACAACAUGAGGAUCACCCAUGUGAUACCAGUAUCAAAAGAUACCCUUGGCAGCACACAUGACAUGAGGAUCACCCAUGUA [AstrosSSTheA#2] | 52.4
32 | AAUGUGAUAGUCGUACUCUCACACUGAGAAGGAGCGCGAAAGUUCGCAGGUAGGUCGCUCAGUUAUACAUGAGGAUCACCCAUGU [Edgeised] | 26.8
33 | UGGAGAUAGACGGCCGCCACUAACAUGAGGAUCACCCAUGUCGUCACGAAUGGAUGGCCCUAGAAUAGGACCGGGUCCGGAUUCA [theeternabot_exclusion_MS2_Trp_B_48] | 42.5
34 | GGGCGCUAUCCCGCGAGGGAUAGCGUUCGACGAGGACCGGUACGGCCGCCACUCGAACGAGUGGGUACAUGAGGAUCACCCAUGU [Gaa] | 50.9
35 | GUAAUUUUAAGAAGGAGCGUCGAAAAUGGGUAAACAUGAGGAUCACCCAUGUAAAGGGAACGACAGGUAGGUCGCUUAGGAUUAC [AstromonsSSArgB#23] | 235
36 | AAACAUGAGGCGGCCGCCACUGUAUGAACAUGAGGAUCACCCAUGUAUGUACCCAUGUGUGUACACAGGACCGGGCCAUGUGGAU [Exclusion Tryptophan B 4] | 32.3
37 | GCGGAAUAAUCGGCCGCCACUAUGAGACAGGAAACUGUCACAUGAGGAUCACCCAUGUAUCCUCAUAGGACCGGGAUUAAAACGC [Melting point difference] | 109
38 | CUAAGAGUAGGAAGGAGCGACAUGAGGAUCACCCAUGUGGCUCUCAUGGCCCGGGUCUUAUGUCAGGUAGGUCGCCUACUGUUUA [Solave] | 21.9
39 | UAUACAUGAGGAUCACCCAUGUGCCAUGAUACCAGACAUGAAAAUGUCCCUUGGCAGCAUGGGAGAUGUAUAGCGGGAAACCCGA [Turany] | 198
40 | GAUUUAACAAAAGUUGGAUCAGUGGGUGAACGAGGACCGGUACGGCCGCCACUCGGACAUGAGGAUCACCCAUGUCCAUGUGAAA [AstrosExyTryA#19] | 167
41 | UGAUAUGUGGGAAGGAGCGCAUACUUCACAUGAGGAUCACCCAUGUCAAGACGUGAGUCAGUGCAGGUAGGUCGCCUAGUUAUGA [Same State - Arginine B (Freestyle 19)] | 101

— the supplement of paper PMC9170038
